Test results as given in patent publication US8063008B2, “Enzymatic production of peracids using perhydrolytic enzymes” (E. I. du Pont de Nemours and Company, priority 2005, dated 2011).

B1: Alcalase ®: Novozymes; subtilisin Carlsberg or subtilisin A from Bacillus licheniformis (protein, UniProt P00780 106-379, looked up)
Subtilisin Carlsberg: AQTVPYGIPLIKADKVQAQGFKGANVKVAVLDTGIQASHPDLNVVGGASFVAGEAYNTDGNGHGTHVAGTVAALDNTTGVLGVAPSVSLYAVKVLNSSGSGSYSGIVSGIEWATTNGMDVINMSLGGASGSTAMKQAVDNAYAKGVVVVAAAGNSGSSGNTNTIGYPAKYDSVIAVGAVDSNSNRASFSSVGAELEVMAPGAGVYSTYPTNTYATLNGTSMASPHVAGAAALILSKHPNLSASQVRNRLSSTATYLGSSFYYGKGLINVEAAAQ
B2: Proteinase K, T. album, recombinantly expressed in P. pastoris: Proteinase K, T. album, recombinantly expressed in P. pastoris, Roche 3115879 (protein, UniProt P06873 106-384, looked up)
Proteinase K: AAQTNAPWGLARISSTSPGTSTYYYDESAGQGSCVYVIDTGIEASHPEFEGRAQMVKTYYYSSRDGNGHGTHCAGTVGSRTYGVAKKTQLFGVKVLDDNGSGQYSTIIAGMDFVASDKNNRNCPKGVVASLSLGGGYSSSVNSAAARLQSSGVMVAVAAGNNNADARNYSPASEPSVCTVGASDRYDRRSSFSNYGSVLDIFGPGTSILSTWIGGSTRSISGTSMATPHVAGLAAYLMTLGKTTAASACRYIADTANKGDLSNIPFGTVNLLAYNNYQA
modifications: recombinant, Pichia pastoris
B3: Proteinase K, T. album: Proteinase K, T. album, Novagen 70663; a fungal subtilisin from Tritirachium album (protein, UniProt P06873 106-384, looked up)
Proteinase K: AAQTNAPWGLARISSTSPGTSTYYYDESAGQGSCVYVIDTGIEASHPEFEGRAQMVKTYYYSSRDGNGHGTHCAGTVGSRTYGVAKKTQLFGVKVLDDNGSGQYSTIIAGMDFVASDKNNRNCPKGVVASLSLGGGYSSSVNSAAARLQSSGVMVAVAAGNNNADARNYSPASEPSVCTVGASDRYDRRSSFSNYGSVLDIFGPGTSILSTWIGGSTRSISGTSMATPHVAGLAAYLMTLGKTTAASACRYIADTANKGDLSNIPFGTVNLLAYNNYQA
B4: Papain: Papain, papaya latex, Sigma P3125 (protein, UniProt P00784 134-345, looked up)
Papain: IPEYVDWRQKGAVTPVKNQGSCGSCWAFSAVVTIEGIIKIRTGNLNEYSEQELLDCDRRSYGCNGGYPWSALQLVAQYGIHYRNTYPYEGVQRYCRSREKGPYAAKTDGVRQVQPYNEGALLYSIANQPVSVVLEAAGKDFQLYRGGIFVGPCGNKVDHAVAAVGYGPNYILIKNSWGTGWGENGYIRIKRGTGNSYGVCGLYTSSFYPVKN

Columns and labels:
Format in all cases: biochemical
[1] = Enzymatic perhydrolysis of triacetin using a combination of lipase and Alcalase at pH 4.0 and 6.5 (Example 22); conditions: H2O2 500 mM, 1 mg lipase, 20 μL Alcalase
Procedure: Reaction mixtures were prepared containing 1 mg lipase (A “Amano” 12 (Amano), Validase AN (Valley Research), or ICR-110 (BioCatalytics)), and 20 μL Alcalase® (Novozymes) in 1.0 mL of 50 mM buffer (either sodium acetate/acetic acid buffer at pH 4.0, or potassium phosphate buffer at pH 6.5), additionally containing triacetin (250 mM) and hydrogen peroxide (500 mM). […] A portion of the filtered reaction samples was diluted 1:10 with dd water and analyzed for hydrogen peroxide, and the remaining portion of the sample was directly analyzed for peracid using the HPLC assay method (Table 27). Reactions were also run with lipase alone or Alcalase® alone for comparison of peracetic acid concentrations produced without the combination of lipase and Alcalase®.

[2] = Enzymatic perhydrolysis of a mixture of diacetin (250 mM), triacetin (88 mM) and monoacetin (192 mM) using lipase and Alcalase at pH 4.0 and 6.5 (Example 23); conditions: 1 mg lipase, 20 μL Alcalase
Procedure: Reaction mixtures were prepared containing 1 mg lipase (A “Amano” 12 (Amano), Validase AN (Valley Research), or ICR-110 (BioCatalytics)), and 20 μL Alcalase® (Novozymes) in 1.0 mL of 50 mM buffer (either sodium acetate/acetic acid buffer at pH 4.0, or potassium phosphate buffer at pH 6.5), additionally containing a mixture of diacetin (250 mM), triacetin (88 mM) and monoacetin (192 mM) and hydrogen peroxide (500 mM). […] A portion of the filtered reaction samples was diluted 1:10 with dd water and analyzed for hydrogen peroxide, and the remaining portion of the sample was directly analyzed for peracid using the HPLC assay method (Table 28). Reactions were also run with lipase alone or Alcalase® alone for comparison of peracetic acid concentrations produced without the combination of lipase and Alcalase®.

[3] = Protease-catalyzed perhydrolysis of acetamide at pH 6.5 (Example 9); conditions: pH 6.5, 500 mM H2O2, 1 mg protease
Procedure: (§1) Into a 4-mL glass vial with stir bar was added 1 mg protease (Table 6) in 0.050 mL of 50 mM potassium phosphate buffer (pH 6.5), 0.900 mL of an aqueous mixture containing either a) acetamide (278 mM) in 50 mM potassium phosphate buffer (pH 6.5) or b) diacetamide (278 mM) in 50 mM potassium phosphate buffer (pH 6.5), and 0.052 mL 30% hydrogen peroxide (500 mM final concentration). […] A portion of the filtered reaction samples was diluted 1:10 with dd water and analyzed for hydrogen peroxide, and the remaining portion of the sample was directly analyzed for peracid using the HPLC assay method (Table 10).

[4] = Protease-catalyzed perhydrolysis of acetamide at pH 4.0 (Example 6); conditions: pH 4.0, 500 mM H2O2, 1 mg protease
Procedure: as §1, with “sodium acetate/acetic acid” for “potassium phosphate”, “4.0),” for “6.5),”, “4.0)” for “6.5)”, “7).” for “10).”

[5] = Protease-catalyzed perhydrolysis of diacetamide at pH 6.5 (Example 9); conditions: pH 6.5, 500 mM H2O2, 1 mg protease
Procedure: as §1

[6] = Enzymatic perhydrolysis of triacetin using a combination of lipase and proteases (Proteinase K, Pronase) at pH 4.0 and 6.5 (Example 10); conditions: H2O2 500 mM, 1 mg lipase, 0.3 mg Proteinase K, 1.2 mg Pronase
Procedure: Reaction mixtures were prepared containing 1 mg lipase (ICR 101, ICR-110, or ICR-117, BioCatalytics, Pasadena, Calif.), 0.3 mg Proteinase K (T. album), and 1.2 mg of Pronase in 1.0 mL of 50 mM buffer (either sodium acetate/acetic acid buffer at pH 4.0, or potassium phosphate buffer at pH 6.5), additionally containing triacetin (250 mM) and hydrogen peroxide (500 mM). […] A portion of the filtered reaction samples was diluted 1:10 with dd water and analyzed for hydrogen peroxide, and the remaining portion of the sample was directly analyzed for peracid using the HPLC assay method (Table 11). Reactions were also run with lipase alone or protease(s) alone for comparison of peracetic acid concentrations produced without the combination of lipase and protease(s).

[7] = Protease-catalyzed perhydrolysis of diacetamide at pH 4.0 (Example 6); conditions: pH 4.0, 500 mM H2O2, 1 mg protease
Procedure: as §1, with “sodium acetate/acetic acid” for “potassium phosphate”, “4.0),” for “6.5),”, “4.0)” for “6.5)”, “7).” for “10).”

[8] = Protease-catalyzed perhydrolysis of triacetin at pH 4.0 (Example 7); conditions: pH 4.0, 500 mM H2O2, 1 mg protease
Procedure: as §1, with “sodium acetate/acetic acid” for “potassium phosphate”, “4.0),” for “6.5),”, “triacetin” for “either a) acetamide”, “4.0),” for “6.5) or b) diacetamide (278 mM) in 50 mM potassium phosphate buffer (pH 6.5),”, “8).” for “10).”

[9] = Protease-catalyzed perhydrolysis of triacetin at pH 6.5 (Example 8); conditions: pH 6.5, 500 mM H2O2, 1 mg protease
Procedure: The analytical procedure described by U. Karst et al. (Anal. Chem., 69 (17):3623-3627 (1997)) was employed, as described herein, for analysis of product mixtures containing peracid and hydrogen peroxide. Briefly, the concentration of peracetic acid (PAA) in analyzed samples ranged from 0.025 mM-10 mM, and the concentration of H2O2 ranged from 0.075 mM-3 mM. Reaction mixtures containing peracid and/or hydrogen peroxide were, if necessary prior to analysis, diluted to produce a concentration of peracid or peroxide in these ranges. […] At the end of 30 minutes, 0.100 mL of 10 mM N,N-diethyl-m-toluamide (DEET, HPLC external standard) was added and the resulting solution analyzed by HPLC: Supelco Discovery C8 10-cm column with pre-column, 10-μL injection, UV detection at 225 nm, solvent A: acetonitrile, solvent B: deionized water, 1 mL/min gradient as follows: […]
as §1, with “sodium” for “potassium”, “triacetin” for “either a) acetamide”, “mM” for “mM potassium phosphate buffer (pH 6.5) or b) diacetamide (278 mM) in 50 mM potassium”, “9).” for “10).”

| Molecule | acetamide (250 mM) peracetic acid (ppm), 5 min [3] | acetamide (250 mM) peracetic acid (ppm), 30 min [3] | acetamide (250 mM) peracetic acid (ppm), 5 min [4] | acetamide (250 mM) peracetic acid (ppm), 30 min [4] | diacetamide (250 mM) peracetic acid (ppm), 5 min [5] | diacetamide (250 mM) peracetic acid (ppm), 30 min [5] | other results |
| --- | --- | --- | --- | --- | --- | --- | --- |
| B1 | – | – | – | – | – | – | peracetic acid (ppm), 5 min ([1]; pH 4.0, triacetin 250 mM): 0 ppm; peracetic acid (ppm), 30 min ([1]; pH 4.0, triacetin 250 mM): 0 ppm; peracetic acid (ppm), 5 min ([1]; pH 6.5, triacetin 250 mM): 180 ppm; peracetic acid (ppm), 30 min ([1]; pH 6.5, triacetin 250 mM): 330 ppm; peracetic acid (ppm), 5 min ([2]; pH 4.0, H2O2 500 mM): 0 ppm; peracetic acid (ppm), 30 min ([2]; pH 4.0, H2O2 500 mM): 20 ppm; peracetic acid (ppm), 5 min ([2]; pH 6.5, H2O2 500 mM): 110 ppm; peracetic acid (ppm), 30 min ([2]; pH 6.5, H2O2 500 mM): 210 ppm |
| B2 | 150 ppm | 194 ppm | 26 ppm | 43 ppm | 66 ppm | 99 ppm | – |
| B3 | 270 ppm | 214 ppm | 34 ppm | 49 ppm | 104 ppm | 100 ppm | peracetic acid (ppm), 5 min ([6]; pH 4.0, triacetin 250 mM): 24 ppm; peracetic acid (ppm), 30 min ([6]; pH 4.0, triacetin 250 mM): 7 ppm; peracetic acid (ppm), 5 min ([6]; pH 6.5, triacetin 250 mM): 323 ppm; peracetic acid (ppm), 30 min ([6]; pH 6.5, triacetin 250 mM): 669 ppm |
| B4 | 199 ppm | 157 ppm | 81 ppm | 105 ppm | 342 ppm | 187 ppm | diacetamide (250 mM) peracetic acid (ppm), 5 min ([7]; 5 min): 135 ppm; diacetamide (250 mM) peracetic acid (ppm), 30 min ([7]; 30 min): 172 ppm; triacetin (250 mM) peracetic acid (ppm), 5 min ([8]; 5 min): 85 ppm; triacetin (250 mM) peracetic acid (ppm), 30 min ([8]; 30 min): 48 ppm; triacetin (250 mM) peracetic acid (ppm), 5 min ([9]; 5 min): 203 ppm; triacetin (250 mM) peracetic acid (ppm), 30 min ([9]; 30 min): 142 ppm |
